Tests used:
[1] = biological target: soluble DR 11 (DRB1*1101) class II molecules purified from SWEIG EBV-B cells (human) (UniProt P01903); assay: peptide competition ELISA, soluble DR 11, biotinylated indicator TT831-843
[2] = biological target: soluble DR 2a (DRB5*0101) molecules isolated from L cells transfectant L416.3 (human) (UniProt P01903)
[3] = biological target: soluble DR 8 (DRB1*0801) class II molecules purified from BM9 EBV-B cells (human) (UniProt P01903); assay: peptide competition ELISA, soluble DR 8, biotinylated indicator GYR(A)6L
[4] = biological target: soluble DR4 (DRB1*0401) class II molecules purified from BSM or PREISS EBV-B cells (human) (UniProt P01903); assay: peptide competition ELISA, soluble DR 4, biotinylated indicator UD4
[5] = biological target: soluble DR 1 (DRB1*0101) class II molecules purified from HOM-2 EBV-B cells (human) (UniProt P01903); assay: peptide competition ELISA, soluble DR 1, biotinylated indicator GFK(A)7
[6] = biological target: soluble DR 7 (DRB1*0701) class II molecules purified from EKR EBV-B cells (human) (UniProt P01903); assay: peptide competition ELISA, soluble DR 7, biotinylated indicator GFK(A)7, pH 5

Substance: HA307-319 peptide derived from influenza hemagglutinin
- IC50 [1]: 1000 nM
- IC50 [2]: 30 nM
- IC50 [3]: 5 µM
- IC50 [4]: 1000 nM
- IC50 [5]: 100 nM
- IC50 [6]: 100 nM

Reference: patent US20050249750A1
